Results taken from paper PMC10987460, “Impact of different models based on blood samples and images for bone marrow dosimetry after ^177Lu-labeled somatostatin-receptor therapy” (EJNMMI Physics, 2024).

Key:
[1] = in vivo; cited from earlier work
From the text: Table 1 Literature review of absorbed dose in bone marrow for ^177Lu-PRRT | column: Bone marrow absorbed dose (Gy/GBq) || Recently, the EANM dosimetry committee published its recommendations for the dosimetry of ^177Lu-labeled somatostatin-receptor and PSMA-targeting ligands. For ^177Lu-PRRT, the median value for the red marrow absorbed dose across all the studies is 50 mGy/GBq. The total-body time activity curve (TAC) is generally biphasic, as is the case for the blood TAC. The recommendation for dosimetry is to measure the activity concentration in the blood even if sequential planar or SPECT/CT whole-body imaging is also possible. || The median absorbed dose ranged from 15.3 to 63.9 mGy/GBq depending on the method used, which is coherent with the median literature value of 50 mGy/GBq (range 2 to 150 mGy/GBq) (see Table 1). With the blood-based method, the tri-exponential model gave a higher median absorbed dose than the bi-exponential model, which also gave a higher median dose than the mono-exponential model. The tri-exponential model was not always accurate and sometimes gave an infinite AUC, that is maybe due to the low number of points especially for the image-based method where we only have 4 points.

[2] = human, in vivo; cited from earlier work
From the text: Peptide receptor radionuclide therapy (PRRT) with ^177Lu-DOTATATE or ^177Lu-oxodotreotide, a somatostatin analog radiolabeled with ^177Lu, is a recognized therapeutic option for metastatic or symptomatic patients with midgut WHO grade I-II neuroendocrine tumors. […] The standard treatment consists in four intravenous injections of 7.4 GBq of ^177Lu-DOTATATE administered every 8 weeks. This the ...

[3] = set-up: species or system patients; conditions: in vivo
Experimental: A retrospective study was conducted on 59 patients treated in our institution for neuroendocrine tumors (NET) with ^177Lu-DOTATATE (Lutathera ®) between 2019 and 2021. In a standard study, patients received 4 cycles of ^177Lu-DOTATATE at the recommended activity of 7400 MBq during a 30-min intravenous perfusion. The interval between each cycle was eight weeks. The study was declared to the Health Data Hub (number: F20230102114415).
Six to nine blood samples were collected at 0.5, 1, 2, 4, 8, 16, 24, 72 and 144 h post-injection in each patient. Blood was collected in the arm contralateral to that in which ^177Lu-DOTATATE was injected. Blood samples were centrifuged at 1000xg for 10 min at ambient temperature. Radioactivity was measured in 1 ml aliquots of plasma using a WIZARD^2™ 2480-0010 Gamma Counter (Perkin Elmer, MS, USA). A calibration curve with ^177Lu-DOTATATE was established to normalize the data obtained with the gamma counter. Radioactivity-time data were expressed in MBq/L after correction for radioactive decay between the time of the sampling and the measurement according to the equation: C(t)corr=C(t)measured×e^-Ln2/T1/2,177Lu(tmeasured-t) where C(t)corr is ^177Lu-Dotatate concentration at time t corrected for radioactive decay, C(t)measured is the ^177Lu-Dotatate concentration measured at time tmeasured, T1/2,^177Lu is the half-time disintegration of ^177Lu and T0 is the time of ^177Lu-Dotatate injection.
For the blood-based method, the activity concentration was fitted by a mono-, bi- or tri- exponential curve to infinity to estimate the area under the curve (AUC) using an in-house Python program (Python 3.10, numpy and matplotlib libraries). […]
To estimate the influence of the late timepoints for the blood-based method, we estimated the absorbed dose with only the timepoints before 24 h post-injection. For the image-based method, we kept only three timepoints by deleting the last one and compared the absorbed dose to the one calculated with all the timepoints.

C[C@@H](O)[C@H](NC(=O)[C@@H]1CSSC[C@H](NC(=O)[C@@H](Cc2ccccc2)NC(=O)CN2CCN(CC(=O)O)CCN(CC(=O)O)CCN(CC(=O)O)CC2)C(=O)N[C@@H](Cc2ccc(O)cc2)C(=O)N[C@H](Cc2c[nH]c3ccccc23)C(=O)N[C@@H](CCCCN)C(=O)N[C@@H]([C@@H](C)O)C(=O)N1)C(=O)O [^177Lu-DOTATATE, metal not drawn]
Median value for the red marrow absorbed dose across all the studies [1]: 50 mGy/GBq
Range of literature red marrow absorbed dose [1]: 2-150 mGy/GBq
Grade 3 or 4 lymphopenia [2]: 9%
Grade 3 or 4 thrombopenia [2]: 2%
Leukemia, treated patients [2]: about 1%
Myelodysplastic syndrome (MDS), treated patients [2]: about 2%
Effective half-life, first phase [3]: 12 to 348 min
Effective half-life, second phase [3]: 96 to 2080 min
Median absorbed dose (bone marrow), range over methods and models [3]: 15.3-63.9 mGy/GBq
